{"source": "IntAct's records for PubMed 20553494", "parents": {"B1": {"name": "Homeobox protein Meis2 (Homo sapiens), O14770-4 (parent)", "chain": "MAQRYDELPHYGGMDGVGVPASMYGDPHAPRPIPPVHHLNHGPPLHATQHYGAHAPHPNVMPASMGSAVNDALKRDKDAIYGHPLFPLLALVFEKCELATCTPREPGVAGGDVCSSDSFNEDIAVFAKQVRAEKPLFSSNPELDNLMIQAIQVLRFHLLELEKVHELCDNFCHRYISCLKGKMPIDLVIDERDGSSKSDHEELSGSSTNLADHNPSSWRDHDDATSTHSAGTPGPSSGGHASQSGDNSSEQGDGLDNSVASPGTGDDDDPDKDKKRQKKRGIFPKVATNIMRAWLFQHLTHPYPSEEQKKQLAQDTGLTILQVNNWFINARRRIVQPMIDQSNRAVSQGAAYSPEGQPMGSFVLDGQQHMGIRPAGLQSMPGDYVSQGGPMGMSMAQPSYTPPQMTPHPTQLRHGPPMHSYLPSHPHHPAMMMHGGPPTHPGMTMSAQSPTMLNSVDPNVGGQVMDIHAQ", "partner": "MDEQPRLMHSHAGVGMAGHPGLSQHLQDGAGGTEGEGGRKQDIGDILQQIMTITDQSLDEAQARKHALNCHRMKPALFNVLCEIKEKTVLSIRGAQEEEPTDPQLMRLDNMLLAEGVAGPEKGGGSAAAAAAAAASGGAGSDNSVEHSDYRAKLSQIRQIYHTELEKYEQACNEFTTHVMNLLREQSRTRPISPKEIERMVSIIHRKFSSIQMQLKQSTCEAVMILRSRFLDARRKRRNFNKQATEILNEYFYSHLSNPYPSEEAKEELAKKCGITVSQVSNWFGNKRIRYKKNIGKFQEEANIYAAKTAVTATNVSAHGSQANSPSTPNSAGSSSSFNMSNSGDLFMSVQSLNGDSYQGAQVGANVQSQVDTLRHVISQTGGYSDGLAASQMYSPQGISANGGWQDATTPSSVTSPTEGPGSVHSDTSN"}}}
{"variants_of": "B1", "details": "with pbx1_human PBX1, P40424"}
{"variant": "I151A", "effect of a mutation on the interaction": "decreasing interaction"}
{"variant": "L154A", "effect of a mutation on the interaction": "decreasing interaction"}
{"variants_of": "B1", "details": "with pbx1_human PBX1, P40424", "remark": "another data set of the same source"}
{"variant": "K163A", "effect of a mutation on the interaction": "decreasing interaction"}
{"variant": "E160A", "effect of a mutation on the interaction": "decreasing interaction"}
{"variant": "E162A", "effect of a mutation on the interaction": "decreasing interaction"}
{"variants_of": "B1", "details": "with pbx1_human PBX1, P40424", "remark": "another data set of the same source"}
{"variant": "K95N", "effect of a mutation on the interaction": "decreasing interaction"}
{"variant": "E94N", "effect of a mutation on the interaction": "decreasing interaction"}
{"variant": "C96G", "effect of a mutation on the interaction": "decreasing interaction"}
{"variant": "E97T", "effect of a mutation on the interaction": "decreasing interaction"}
{"variants_of": "B1", "details": "with pbx1_human PBX1, P40424", "remark": "another data set of the same source"}
{"variant": "L161A", "effect of a mutation on the interaction": "decreasing interaction"}
{"variant": "L158A", "effect of a mutation on the interaction": "decreasing interaction"}
{"variant": "L159A", "effect of a mutation on the interaction": "decreasing interaction"}
{"variants_of": "B1", "details": "with pbx1_human PBX1, P40424", "remark": "another data set of the same source"}
{"variant": "L88A", "effect of a mutation on the interaction": "decreasing interaction"}
{"variant": "L85A", "effect of a mutation on the interaction": "decreasing interaction"}
